Measurements as given in US20160137713A1 (HANALL BIOPHARMA, published 2016).

Experiments:
[1] = target: T1, human FcRn on HEK293 cells (human, UniProt P55899 24-365; P61769 21-119); test: FACS on hFcRn-overexpressing HEK293 cells at pH 6.0, Alexa488 anti-human goat antibody; MFI relative to hIgG1
T1 construct: whole, on cells; also called hFcRn
Method: In stable HEK293 cells expressing human FcRn, the degrees of binding of antibody to FcRn at various pHs were analyzed using a FACS system. Specifically, 100,000 stable HEK293 cells were washed with PBS and centrifuged in a table top microcentrifuge at 4500 rpm for 5 minutes to obtain pellets. 1 μg of antibody was added to 100 μl of pH 6.0 or pH 7.4PBS/10 mM EDTA. The cell pellets were resuspended in 100 μl of the antibody solution and incubated on ice for 60 minutes. The cells were washed once with 150 μl of buffer having pH difference, and then pellets were obtained therefrom. Alexa488-labeled anti-human antibody goat antibody (1 mg/ml) was diluted at 1:20 in buffer having pH difference, and the pellets were resuspended in 100 μl of the buffer, and then cultured on ice for 60 minutes. The cells were washed once with 150 μl of buffer having pH difference, and pellets were obtained therefrom and resuspended in buffer having pH difference. The suspension was transferred into a tube for FACS analysis. These cells were analyzed by FACS using BD FACSDiva™ v6.1.3 software (BD Bioscience). The results of the analysis were expressed as Mean Fluorescence Intensity (MFI) (see FIG. 2).

[2] = target: T2, rat FcRn on Rat-2 cells (rat, UniProt P13599 23-366; P07151 21-119); test: FACS on rat FcRn-expressing Rat-2 cells at pH 6.0 and pH 7.4, FITC anti-human IgG goat antibody; MFI relative to hIgG
T2 construct: whole, on cells
T2 sequence (looked up): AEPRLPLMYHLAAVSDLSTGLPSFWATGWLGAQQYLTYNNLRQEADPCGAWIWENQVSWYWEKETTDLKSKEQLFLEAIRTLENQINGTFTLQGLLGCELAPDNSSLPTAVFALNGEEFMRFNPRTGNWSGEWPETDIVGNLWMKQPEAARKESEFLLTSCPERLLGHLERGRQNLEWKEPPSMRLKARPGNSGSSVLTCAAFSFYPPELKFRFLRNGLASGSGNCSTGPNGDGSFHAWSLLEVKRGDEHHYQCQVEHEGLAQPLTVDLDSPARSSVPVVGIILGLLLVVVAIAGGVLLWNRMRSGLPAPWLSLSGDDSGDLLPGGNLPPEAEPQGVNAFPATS
T2 sequence (b2m, looked up): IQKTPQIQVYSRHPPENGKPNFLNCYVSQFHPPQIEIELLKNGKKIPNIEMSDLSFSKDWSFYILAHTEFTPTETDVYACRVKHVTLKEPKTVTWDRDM
Method: Rat-2 (KCTC #AC28203), rat fibroblasts stably expressing rat FcRn, were cultured in 10% FBS DMEM medium, and then detached from the culture plate by trypsin treatment. The cells were washed three times with cold binding buffer (PBS pH 6.0, 10 mM EDTA), and then diluted in binding buffer at a concentration of 10⁵ cells/ml. 100 μl of the cell dilution was dispensed into each 1.5-ml tube in such a manner that each tube contained 10⁴ cells, and 1 μl of HL161 antibody (1 mg/ml) was added to the dispensed cells. Next, the cells were incubated on ice. As control antibodies, 1 μl of each of mouse 1G3 antibody and human IgG antibody (Abcam, cat#. 409120), which bind to rat FcRn, was used. The 1G3 antibody was produced and purified from mouse hybridoma cells (ATCC CRL2434). The cells were recovered by centrifugation at 4° C. and 4000 rpm for 5 minutes, after which the cells were washed once with binding buffer and resuspended in 100 μl of binding buffer. As FITC-conjugated secondary antibody, 1 μl of anti-human IgG goat antibody (Invitrogen, cat#. A11013) was added to the cells. In the case of the experiment using anti-rat FcRn mouse antibody, the anti-mouse IgG goat antibody (Invitrogen, cat#. A11001) was incubated with the cells on ice for 1 hour, and then the cells were recovered by centrifugation at 4° C. and 4000 rpm for 5 minutes, washed once with binding buffer, resuspended in 400 μl of binding buffer and analyzed by FACS to examine the cross-reactivity of the HL161 antibodies with rat FcRn (see FIG. 4). An experiment at a pH of 7.4 was performed using binding buffer at a pH of 7.4 in the same manner as the experiment using binding buffer at a pH of 6.0. The degree of the binding of each antibody to rat FcRn was presented as relative MFI based on human IgG.

[3] = target: T1, human FcRn on HEK293 cells; test: FACS competition on hFcRn HEK293 cells at pH 6.0; remaining binding of 100 nM Alexa488-labeled hIgG1 (m14) with 250 nM competitor antibody, percent of the tube without competitor
Method: (§1) In stable HEK293 cells expressing human FcRn, the blocking of the antibody against FcRn was analyzed by FACS. The antibody was diluted in binding buffer (PBS pH 6.0, 10 mM EDTA) at concentrations of 2,000 nM, […] to make 50 μl of dilutions, which were dispensed into tubes. […] Stable HEK293 cells were diluted in binding buffer at a concentration of 2,500,000 cells/ml, and 40 μl of the cell dilution was added to each of the labeled antibody-containing tubes. Thus, a final volume of 100 μl contained 100,000 cells, 100 nM labeled antibody and 1000 nM, 500 nM or 250 nM competitor antibody. The cells were washed once with 150 μl of buffer (pH 6.0), and pellets were obtained therefrom and resuspended in 150 μl of buffer having pH difference. The suspension was transferred into a tube for FACS analysis. The cells were analyzed by FACS using BD FACSDiva™ v6.1.3 software (BD Bioscience). The results of the analysis were expressed as mean fluorescence intensity (MFI).
(§2) The MFI of the test group was processed after subtracting the MFI (background signal) measured in cells alone.

[4] = target: T1, human FcRn on HEK293 cells; test: FACS competition on hFcRn HEK293 cells at pH 6.0; remaining binding of 100 nM Alexa488-labeled hIgG1 (m14) with 500 nM competitor antibody, percent of the tube without competitor
Method: as §1, §2

T1 sequence (P55899 24-365, chain 1 of 2): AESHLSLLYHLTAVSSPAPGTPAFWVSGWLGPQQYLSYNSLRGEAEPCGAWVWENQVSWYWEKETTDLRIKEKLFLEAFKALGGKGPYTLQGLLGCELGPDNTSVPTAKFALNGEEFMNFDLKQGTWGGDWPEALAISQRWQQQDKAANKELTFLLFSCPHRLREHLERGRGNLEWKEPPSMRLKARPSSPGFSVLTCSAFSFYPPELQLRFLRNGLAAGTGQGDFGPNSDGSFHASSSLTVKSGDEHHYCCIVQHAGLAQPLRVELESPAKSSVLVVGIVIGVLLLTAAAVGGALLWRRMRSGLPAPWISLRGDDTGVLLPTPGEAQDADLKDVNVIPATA
T1 sequence (P61769 21-119, chain 2 of 2): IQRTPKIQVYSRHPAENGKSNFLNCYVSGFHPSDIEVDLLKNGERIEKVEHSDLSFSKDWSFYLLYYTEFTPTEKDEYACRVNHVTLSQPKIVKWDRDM

B1: HL161-11H (antibody, V domains shown)
VH: QMQLVESGGGLVQPGRSLRLSCAASGFTFSSYAMHWVRQAPGKGLEWVAVISYDGSNKYYADSVKGRFTISRDNSKNTLYLQMNSLRSEDTAVYYCSRGSGGRDAFDVWGQGTMITVSS
VL: DIQMTQSPSTLSASVGDRVTITCRASQSISSRLAWYQQKPGKAPKLLIYKASSLETGVPSRFSGSGSGTEFTLTISSLQPDDFATYYCQQTNSFPLTFGGGTKVEIK
notes: Whole human IgG from pNATAB vectors
B1 was tested, and the “Relative MFI (Fold)” value [1] was 3.5 fold, the binding result [2] was “no binding” and the “Relative MFI(%) at 250nM” value [3] was 75.4%. For the same binder, the “Relative MFI(%) at 500nM” value [4] was 60.4%.
